Residue numbers refer to the chain shown, from its start.
Columns and labels:
[1] = target: the molecule itself; experiment: crystal structure; His-tagged Se-Met labelled LpEst1; 1 M sodium malonate, 0.5% (v/v) Jeffamine ED-2001, 100 mM HEPES pH 7.0, 5 mM DTT; space group I4, four molecules in the asymmetric unit; 2.05 A
[2] = target: the molecule itself; experiment: AUC; sedimentation equilibrium at 12,000 and 18,000 rpm; Gln189Glu mutant 10 uM in McIlvaine buffer pH 5.0 (Na2PO4, citric acid); fit to an ideal single species
[3] = target: the molecule itself; experiment: SEC; analytical gel filtration on Superdex 200 10/300 GL Tricorn; 20 mM Tris-HCl pH 8.0, 0.1 M NaCl, 5 mM DTT, 0.04% sodium azide; size from Kav against standards

B1: His-tagged, selenomethionine (Se-Met) labelled LpEst1 (enzyme, Lactobacillus plantarum WCFS1, UniProt Q88Y25 1-337, looked up)
chain: MPTINSIQTTVNGVVKIVKPFNNDIAGEQFDPHVLQTLTAFKQPAILENDLAALRSGSLTPAIADPVGDAVTVQSRNITALNRTVSVEWLTPQNVINHTVLVYFHGGAFYGGVPGNNTVLLKLVAAKSHCEILNVDYSLAPEAPAPAGILDGLAIFQYLEQRDAETMITVAGDSAGANVIMAATNLNQQLGSNRINQQLLLYPVTAPNADHAGPLWDLAAFPIIDSQRAILTNYHDLFRQLDSIMTDYYVPENFDSHSPLISPLHQENFTMTPPTTIMVGEFDPFRPQAWAYAQRLAAADTATTFIQYQGLNHAFAPLVDQYWQSQDVAQVMAAALI
modifications: selenomethionine (Se-Met labelled)
notes: carboxylesterase LpEst1, Lactobacillus plantarum WCFS1, UniProtKB/Swiss-Prot Q88Y25; 337 residues; Methionines replaced by selenomethionine; incorporation checked by mass spectrometry; also called Se-Met LpEst1; Se-Met labelled LpEst1 esterase
[1]
  binding result: binds

B2: LpEst1 Gln189Glu mutant (enzyme, Lactobacillus plantarum WCFS1, UniProt Q88Y25 1-337, looked up)
chain: B1 chain with Q189E
notes: carboxylesterase LpEst1, Lactobacillus plantarum WCFS1, UniProtKB/Swiss-Prot Q88Y25; 337 residues; single point mutant Gln189Glu; Made from the wild-type vector with the mutagenic primers printed in the methods; source: recombinant, point mutant of pURI3-TEV-LpEst1; purified (IMAC on a His-Trap FF column plus size exclusion chromatography, last step in McIlvaine buffer pH 5.0)
[2]
  stoichiometry N: 2

B3: carboxylesterase LpEst1 from Lactobacillus plantarum WCFS1 (wild type, native) (enzyme, UniProt Q88Y25 1-337, looked up)
chain: B1 chain
notes: carboxylesterase LpEst1, Lactobacillus plantarum WCFS1, UniProtKB/Swiss-Prot Q88Y25; 337 residues, about 36.7 kDa; complete protein molecules in the crystal model; The crystals were of His-tagged protein; also called native LpEst1; wild-type protein; source: recombinant, from the expression vector pURI3-TEV-LpEst1
[3]
  stoichiometry N: 2

From paper PMC3963902 (PLoS ONE, 2014)
